Changes are numbered by the printed parent chain. Numbers in names are those of the source.

T1: biotinylated C-terminally Avi-tagged Cdc37 (human, UniProt Q16543 1-378, biotin (on the Avi tag))
T1 construct: not shown: Avi tag, C-terminal, kept
T1 sequence (looked up): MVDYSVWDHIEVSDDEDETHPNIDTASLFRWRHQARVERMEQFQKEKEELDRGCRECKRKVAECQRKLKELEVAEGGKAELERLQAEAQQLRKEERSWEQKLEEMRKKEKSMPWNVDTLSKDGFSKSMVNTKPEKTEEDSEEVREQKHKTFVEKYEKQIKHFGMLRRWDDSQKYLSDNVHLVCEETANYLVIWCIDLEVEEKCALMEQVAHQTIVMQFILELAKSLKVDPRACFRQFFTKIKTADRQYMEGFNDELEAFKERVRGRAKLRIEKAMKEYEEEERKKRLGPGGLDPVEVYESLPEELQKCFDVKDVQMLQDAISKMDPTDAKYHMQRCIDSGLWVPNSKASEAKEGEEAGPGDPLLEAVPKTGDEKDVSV

B1: Vcyclin (Avi-tagged, for direct HTRF) (natural protein)
chain: MADSPNRLNRAKIDSTTMKDPRVLNNLKLRELLLPKFTSLWEIQTEVTVDNRTILLTWMHLLCESFELDKSVFPLSVSILDRYLCKKQGTKKTLQKIGAACVLIGSKIRTVKPMTVSKLTYLSCDCFTNLELINQEKDILEALKWDTEAVLATDFLIPLCNALKIPEDLWPQLYEAASTTICKALIQPNIALLSPGLICAGGLLTTIETDNTNCRPWTCYLEDLSSILNFSTNTVRTVKDQVSEAFSLYDLEIL
modifications: biotin (on the Avi tag)
notes: also called viral D-type cyclin from Herpesvirus saimiri; source: purified
B2: GSTCDK4 (enzyme, human, UniProt P11802 1-303, looked up)
chain: MATSRYEPVAEIGVGAYGTVYKARDPHSGHFVALKSVRVPNGGGGGGGLPISTVREVALLRRLEAFEHPNVVRLMDVCATSRTDREIKVTLVFEHVDQDLRTYLDKAPPPGLPAETIKDLMRQFLRGLDFLHANCIVHRDLKPENILVTSGGTVKLADFGLARIYSYQMALTPVVVTLWYRAPEVLLQSTYATPVDMWSVGCIFAEMFRRKPLFCGNSEADQLGKIFDLIGLPPEDDWPRDVSLPRGAFPPRGPRPVQSVVPEMEESGAQLLLEMLTFNPHKRISAFRALQHSYLHKDEGNPE
notes: also called GST-tagged CDK4
B3: Avi-tagged Kcyclin (natural protein)
chain: MATANNPPSGLLDPTLCEDRIFYNILEIEPRFLTSDSVFGTFQQSLTSHMRKLLGTWMFSVCQEYNLEPNVVALALNLLDRLLLIKQVSKEHFQKTGSACLLVASKLRSLTPISTSSLCYAAADSFSRQELIDQEKELLEKLAWRTEAVLATDVTSFLLLKLLGGSQHLDFWHHEVNTLITKALVDPKTGSLPASIISAAGCALLVPANVIPQDTHSGGVVPQLASILGCDVSVLQAAVEQILTSVSDFDLRILDSY
modifications: biotin (on the Avi tag)
notes: also called viral D-type cyclin from Kaposi's sarcoma-associated herpesvirus; source: purified
B4: untagged p16INK4a (natural protein, UniProt P42771 1-156, looked up)
chain: MEPAAGSSMEPSADWLATAAARGRVEEVRALLEAGALPNAPNSYGRRPIQVMMMGSARVAELLLLHGAEPNCADPATLTRPVHDAAREGFLDTLVVLHRAGARLDVRDAWGRLPVDLAEELGHRDVARYLRAAAGGTRGSNHARIDAAEGPSDIPD
notes: also called wild-type p16INK4a; authentic p16INK4a
B5: p16M53I (natural protein, UniProt P42771 1-156, looked up)
chain: B4 chain with M53I
notes: also called p16INK4a M53I
B6: p16D108N (natural protein, UniProt P42771 1-156, looked up)
chain: B4 chain with D108N
notes: also called p16INK4a D108N
B7: p16D84N (natural protein, UniProt P42771 1-156, looked up)
chain: B4 chain with D84N
notes: also called p16INK4a D84N
B8: p16M53E (natural protein, UniProt P42771 1-156, looked up)
chain: B4 chain with M53E
notes: also called p16INK4a M53E

Common to all, as to conditions: both partners purified
For assay [1], the target named is B2. Kind of assay: AlphaScreen or HTRF; direct binding: GST-fused CDK (10 nM) and biotinylated Avi-tagged partner titrated; terbium-conjugated anti-GST antibody and streptavidin-XL665. In general terms: In Alpha technology, singlet oxygen from a donor bead excites a nearby acceptor bead.
The target of assay [2] is T2, GSTCDK6 (human, UniProt Q00534 1-326).
T2 construct: also called GST-tagged CDK6
The description is as above.

In assay [3] the target is T1, biotinylated C-terminally Avi-tagged …. The description is as above.
Assay [4] concerns the target B2. Briefly: SPR. On the technique in general: SPR reads the build-up and loss of mass on a sensor chip optically.
Assay [5] concerns the target T2, GSTCDK6. Kind of assay: SPR.
Assay [6] deals with B2. Briefly: SPR. This is another data set of the same source.
Assay [7] concerns the target T2, GSTCDK6. Briefly: SPR. This is another data set of the same source.

T2 sequence (Q00534 whole entry): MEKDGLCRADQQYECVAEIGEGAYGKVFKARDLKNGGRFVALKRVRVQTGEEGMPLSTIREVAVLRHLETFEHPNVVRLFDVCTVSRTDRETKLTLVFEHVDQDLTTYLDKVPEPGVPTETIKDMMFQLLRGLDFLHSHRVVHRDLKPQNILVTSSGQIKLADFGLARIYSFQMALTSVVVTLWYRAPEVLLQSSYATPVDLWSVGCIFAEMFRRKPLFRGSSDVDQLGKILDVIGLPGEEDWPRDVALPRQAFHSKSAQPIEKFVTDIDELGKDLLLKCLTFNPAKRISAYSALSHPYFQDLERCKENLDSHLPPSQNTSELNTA

As usually defined, the Kd is the concentration at which binding is half-saturated. A higher Kd goes with weaker binding. With B1, the results for the Kd in assay [1] and in assay [2] were 151 nM and 14.9 nM, respectively.
For the molecule B2, binding in assay [3] was put at a Kd of 92 nM.
In the case of B3, the figures for the Kd in assay [1] and in assay [2] were 24.9 nM and 10 nM, respectively.
Take B4: the dissociation constant Kd in assay [4] is 0.87 nM; in assay [5], 0.26 nM.
Consider B5, for which, in assay [6], the “fold reduction in the strength of the interaction against wild-type p16INK4a” value was > 1e+06 fold. The “fold higher rate of dissociation against wild-type p16INK4a” value in assay [7] was ~10 fold. For the same molecule, binding in assay [5] was put at a Kd of 0.73 nM.
For B6, the Kd came to 2.56 nM in assay [4] and 0.28 nM in assay [5].
As for B7, in assay [6], the binding result is recorded as “binds”. In addition, the affinity in assay [5], expressed as Kd, was 59.7 nM.
Take B8: in assay [6], the binding result was “binds”. The same molecule showed a Kd in assay [5] of 1.56 nM.

The values are drawn from paper PMC5681435, “Differential Regulation of G1 CDK Complexes by the Hsp90-Cdc37 Chaperone System” (Cell Reports, 2017).
